The chains are these.
B1: LIM domain-binding protein 3 (Homo sapiens), O75112 (parent)
chain: MSYSVTLTGPGPWGFRLQGGKDFNMPLTISRITPGSKAAQSQLSQGDLVVAIDGVNTDTMTHLEAQNKIKSASYNLSLTLQKSKRPIPISTTAPPVQTPLPVIPHQKDPALDTNGSLVAPSPSPEARASPGTPGTPELRPTFSPAFSRPSAFSSLAEASDPGPPRASLRAKTSPEGARDLLGPKALPGSSQPRQYNNPIGLYSAETLREMAQMYQMSLRGKASGVGLPGGSLPIKDLAVDSASPVYQAVIKSQNKPEDEADEWARRSSNLQSRSFRILAQMTGTEFMQDPDEEALRRSSTPIEHAPVCTSQATTPLLPASAQPPAAASPSAASPPLATAAAHTAIASASTTAPASSPADSPRPQASSYSPAVAASSAPATHTSYSEGPAAPAPKPRVVTTASIRPSVYQPVPASTYSPSPGANYSPTPYTPSPAPAYTPSPAPAYTPSPVPTYTPSPAPAYTPSPAPNYNPAPSVAYSGGPAEPASRPPWVTDDSFSQKFAPGKSTTSISKQTLPRGGPAYTPAGPQVPPLARGTVQRAERFPASSRTPLCGHCNNVIRGPFLVAMGRSWHPEEFTCAYCKTSLADVCFVEEQNNVYCERCYEQFFAPLCAKCNTKIMGEVMHALRQTWHTTCFVCAACKKPFGNSLFHMEDGEPYCEKDYINLFSTKCHGCDFPVEAGDKFIEALGHTWHDTCFICAVCHVNLEGQPFYSKKDRPLCKKHAHTINL
B2: Microphthalmia-associated transcription factor (Homo sapiens), O75030 (parent)
chain: MQSESGIVPDFEVGEEFHEEPKTYYELKSQPLKSSSSAEHPGASKPPISSSSMTSRILLRQQLMREQMQEQERREQQQKLQAAQFMQQRVPVSQTPAINVSVPTTLPSATQVPMEVLKVQTHLENPTKYHIQQAQRQQVKQYLSTTLANKHANQVLSLPCPNQPGDHVMPPVPGSSAPNSPMAMLTLNSNCEKEGFYKFEEQNRAESECPGMNTHSRASCMQMDDVIDDIISLESSYNEEILGLMDPALQMANTLPVSGNLIDLYGNQGLPPPGLTISNSCPANLPNIKRELTACIFPTESEARALAKERQKKDNHNLIERRRRFNINDRIKELGTLIPKSNDPDMRWNKGTILKASVDYIRKLQREQQRAKELENRQKKLEHANRHLLLRIQELEMQARAHGLSLIPSTGLCSPDLVNRIIKQEPVLENCSQDLLQHHADLTCTTTLDLTDGTITFNNNLGTGTEANQAYSVPTKMGSKLEDILMDDTLSPVGVTDPLLSSVSPGASKTSSRRSSMSMEETEHTC
B3: BCL11 transcription factor A (Homo sapiens), Q9H165 (parent)
chain: MSRRKQGKPQHLSKREFSPEPLEAILTDDEPDHGPLGAPEGDHDLLTCGQCQMNFPLGDILIFIEHKRKQCNGSLCLEKAVDKPPSPSPIEMKKASNPVEVGIQVTPEDDDCLSTSSRGICPKQEHIADKLLHWRGLSSPRSAHGALIPTPGMSAEYAPQGICKDEPSSYTCTTCKQPFTSAWFLLQHAQNTHGLRIYLESEHGSPLTPRVGIPSGLGAECPSQPPLHGIHIADNNPFNLLRIPGSVSREASGLAEGRFPPTPPLFSPPPRHHLDPHRIERLGAEEMALATHHPSAFDRVLRLNPMAMEPPAMDFSRRLRELAGNTSSPPLSPGRPSPMQRLLQPFQPGSKPPFLATPPLPPLQSAPPPSQPPVKSKSCEFCGKTFKFQSNLVVHRRSHTGEKPYKCNLCDHACTQASKLKRHMKTHMHKSSPMTVKSDDGLSTASSPEPGTSDLVGSASSALKSVVAKFKSENDPNLIPENGDEEEEEDDEEEEEEEEEEEEELTESERVDYGFGLSLEAARHHENSSRGAVVGVGDESRALPDVMQGMVLSSMQHFSEAFHQVLGEKHKRGHLAEAEGHRDTCDEDSVAGESDRIDDGTVNGRGCSPGESASGGLSKKLLLGSPSSLSPFSKRIKLEKEFDLPPAAMPNTENVYSQWLAGYAASRQLKDPFLSFGDSRQSPFASSSEHSSENGSLRFSTPPGELDGGISGRSGTGSGGSTPHISGPGPGRPSSKEGRRSDTCEYCGKVFKNCSNLTVHRRSHTGERPYKCELCNYACAQSSKLTRHMKTHGQVGKDVYKCEICKMPFSVYSTLEKHMKKWHSDRVLNNDIKTE
partner: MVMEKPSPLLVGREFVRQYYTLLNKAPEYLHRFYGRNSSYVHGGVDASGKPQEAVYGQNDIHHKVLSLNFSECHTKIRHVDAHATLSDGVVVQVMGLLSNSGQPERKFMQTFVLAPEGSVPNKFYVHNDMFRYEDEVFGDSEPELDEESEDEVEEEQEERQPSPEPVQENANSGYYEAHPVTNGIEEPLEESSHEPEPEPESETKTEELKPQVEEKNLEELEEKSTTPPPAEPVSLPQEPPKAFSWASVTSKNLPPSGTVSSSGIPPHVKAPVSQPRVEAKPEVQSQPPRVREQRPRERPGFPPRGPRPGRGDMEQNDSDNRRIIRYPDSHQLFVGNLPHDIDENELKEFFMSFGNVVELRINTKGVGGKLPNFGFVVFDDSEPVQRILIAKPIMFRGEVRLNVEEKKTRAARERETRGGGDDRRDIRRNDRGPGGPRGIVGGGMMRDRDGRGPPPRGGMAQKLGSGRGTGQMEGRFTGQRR
B4: Radial spoke head protein 4 homolog A (Homo sapiens), Q5TD94 (parent)
chain: MEDSTSPKQEKENQEELGETRRPWEGKTAASPQYSEPESSEPLEAKQGPETGRQSRSSRPWSPQSRAKTPLGGPAGPETSSPAPVSPREPSSSPSPLAPARQDLAAPPQSDRTTSVIPEAGTPYPDPLEQSSDKRESTPHHTSQSEGNTFQQSQQPKPHLCGRRDVSYNNAKQKELRFDVFQEEDSNSDYDLQQPAPGGSEVAPSMLEITIQNAKAYLLKTSSNSGFNLYDHLSNMLTKILNERPENAVDIFENISQDVKMAHFSKKFDALQNENELLPTYEIAEKQKALFLQGHLEGVDQELEDEIAENALPNVMESAFYFEQAGVGLGTDETYRIFLALKQLTDTHPIQRCRFWGKILGLEMNYIVAEVEFREGEDEEEVEEEDVAEERDNGESEAHEDEEDELPKSFYKAPQAIPKEESRTGANKYVYFVCNEPGRPWVKLPPVIPAQIVIARKIKKFFTGRLDAPIISYPPFPGNESNYLRAQIARISAGTHVSPLGFYQFGEEEGEEEEEAEGGRNSFEENPDFEGIQVIDLVESLSNWVHHVQHILSQGRCNWFNSIQKNEEEEEEEDEEKDDSDYIEQEVGLPLLTPISEDLEIQNIPPWTTRLSSNLIPQYAIAVLQSNLWPGAYAFSNGKKFENFYIGWGHKYSPDNYTPPVPPPVYQEYPSGPEITEMDDPSVEEEQAFRAAQEAVLLAAENEESEEDEDEEDDYD
B5: Zinc finger protein 526 (Homo sapiens), Q8TF50 (parent)
chain: MAEVVAEVAEMPTQMSPGAVEMSTPMSAEMMEMSTEVTEMTPGEALASSLFFQHHQFMCSECGSLYNTLEEVLSHQEQHMLAVSEEEALTTQNVGLEPELVPGAEGPFQCGECSQLILSPGELLAHQDAHLRESANQIQYQCWDCQELFPSPELWVAHRKAQHLSATVAEPPVPPPLPPPTPLPPPSPPSEVKMEPYECPECSTLCATPEEFLEHQGTHFDSLEKEERNGLEEEEEDDEEDEEDDEEMEDEEAMAEVGDDAVGGDESTAGWAQGCGDCPQHQPSAGARRQHRRTAHSPASATHPFHCSQCQRSFSSANRLQAHGRAHVGGTHECTTCSKVFKKAASLEQHLRLHRGEARYLCVDCGRGFGTELTLVAHRRAHTANPLHRCRCGKTFSNMTKFLYHRRTHAGKSGAPPTGATAPPAPAEPTPPPPPPAPPAQLPCPQCSKSFASASRLSRHRRAVHGPPERRHRCGVCGKGFKKLIHVRNHLRTHTGERPFQCHSCGKTFASLANLSRHQLTHTGARPYQCLDCGKRFTQSSNLQQHRRLHLRPVAFARAPRLPITGLYNKSPYYCGTCGRWFRAMAGLRLHQRVHARARTLTLQPPRSPSPAPPPPPEPQQTIMCTELGETIAIIETSQPLALEDTLQLCQAALGASEAGGLLQLDTAFV
B6: Epithelial sodium channel subunit beta (Homo sapiens), P51168 (parent)
chain: MHVKKYLLKGLHRLQKGPGYTYKELLVWYCDNTNTHGPKRIICEGPKKKAMWFLLTLLFAALVCWQWGIFIRTYLSWEVSVSLSVGFKTMDFPAVTICNASPFKYSKIKHLLKDLDELMEAVLERILAPELSHANATRNLNFSIWNHTPLVLIDERNPHHPMVLDLFGDNHNGLTSSSASEKICNAHGCKMAMRLCSLNRTQCTFRNFTSATQALTEWYILQATNIFAQVPQQELVEMSYPGEQMILACLFGAEPCNYRNFTSIFYPHYGNCYIFNWGMTEKALPSANPGTEFGLKLILDIGQEDYVPFLASTAGVRLMLHEQRSYPFIRDEGIYAMSGTETSIGVLVDKLQRMGEPYSPCTVNGSEVPVQNFYSDYNTTYSIQACLRSCFQDHMIRNCNCGHYLYPLPRGEKYCNNRDFPDWAHCYSDLQMSVAQRETCIGMCKESCNDTQYKMTISMADWPSEASEDWIFHVLSQERDQSTNITLSRKGIVKLNIYFQEFNYRTIEESAANNIVWLLSNLGGQFGFWMGGSVLCLIEFGEIIIDFVWITIIKLVALAKSLRQRRAQASYAGPPPTVAELVEAHTNFGFQPDTAPRSPNTGPYPSEQALPIPGTPPPNYDSLRLQPLDVIESDSEGDAI

One test covers variants of B1. As to conditions: with src_human SRC.
For P99S, the “effect of a mutation on the interaction” value is “decreasing interaction strength”.

In the next test the parent is B2. As to conditions: with clh1_human CLTC.
Regarding Y265C, the “effect of a mutation on the interaction” value is listed as “with no effect”.

In another test the parent is B3. As to conditions: with G3BP2, Q9UN86.
Consider C48F, for which the “effect of a mutation on the interaction” value is “causing an interaction”.

The variants in another test derive from B4. As to conditions: with nedd4_human NEDD4, P46934.
Target sequence in this assay (P46934 whole entry): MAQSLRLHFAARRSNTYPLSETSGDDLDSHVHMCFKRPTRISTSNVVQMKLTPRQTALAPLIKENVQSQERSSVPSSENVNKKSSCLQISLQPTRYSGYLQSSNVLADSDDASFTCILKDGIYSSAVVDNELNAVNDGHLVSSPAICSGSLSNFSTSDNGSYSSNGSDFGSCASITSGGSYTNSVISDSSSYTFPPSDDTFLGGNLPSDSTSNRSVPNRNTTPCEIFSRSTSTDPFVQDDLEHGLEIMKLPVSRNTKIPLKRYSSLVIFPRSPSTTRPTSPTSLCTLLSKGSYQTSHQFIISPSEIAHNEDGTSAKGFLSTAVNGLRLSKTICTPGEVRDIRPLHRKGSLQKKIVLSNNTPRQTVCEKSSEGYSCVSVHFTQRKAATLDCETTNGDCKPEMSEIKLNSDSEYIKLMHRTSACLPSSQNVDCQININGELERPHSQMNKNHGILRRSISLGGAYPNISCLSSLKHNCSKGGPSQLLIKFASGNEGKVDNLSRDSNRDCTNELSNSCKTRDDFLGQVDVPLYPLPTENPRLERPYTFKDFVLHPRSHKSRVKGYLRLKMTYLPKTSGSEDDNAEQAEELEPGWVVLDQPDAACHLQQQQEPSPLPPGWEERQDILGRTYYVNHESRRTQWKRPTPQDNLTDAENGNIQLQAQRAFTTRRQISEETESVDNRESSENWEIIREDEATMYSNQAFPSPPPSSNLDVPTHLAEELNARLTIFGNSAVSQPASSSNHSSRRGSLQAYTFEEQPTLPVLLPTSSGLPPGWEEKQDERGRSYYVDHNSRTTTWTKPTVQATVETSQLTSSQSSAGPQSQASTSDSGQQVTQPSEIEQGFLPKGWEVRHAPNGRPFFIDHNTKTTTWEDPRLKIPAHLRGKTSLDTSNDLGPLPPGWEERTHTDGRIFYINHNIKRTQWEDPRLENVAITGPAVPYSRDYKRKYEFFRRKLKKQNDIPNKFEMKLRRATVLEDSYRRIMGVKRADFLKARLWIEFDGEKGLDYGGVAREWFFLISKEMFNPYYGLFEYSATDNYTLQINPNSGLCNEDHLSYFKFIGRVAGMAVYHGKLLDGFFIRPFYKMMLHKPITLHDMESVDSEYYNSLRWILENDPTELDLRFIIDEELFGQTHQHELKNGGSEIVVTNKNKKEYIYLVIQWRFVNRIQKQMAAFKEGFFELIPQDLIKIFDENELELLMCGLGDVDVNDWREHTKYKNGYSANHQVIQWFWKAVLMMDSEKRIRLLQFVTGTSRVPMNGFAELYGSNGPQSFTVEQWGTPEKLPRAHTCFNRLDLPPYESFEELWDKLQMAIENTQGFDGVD
For P664S, the “effect of a mutation on the interaction” value is “decreasing interaction strength”.

In another test the parent is B5. As to conditions: with ima3_human KPNA4, O00629.
ima3_human KPNA4, O00629, sequence (O00629 whole entry): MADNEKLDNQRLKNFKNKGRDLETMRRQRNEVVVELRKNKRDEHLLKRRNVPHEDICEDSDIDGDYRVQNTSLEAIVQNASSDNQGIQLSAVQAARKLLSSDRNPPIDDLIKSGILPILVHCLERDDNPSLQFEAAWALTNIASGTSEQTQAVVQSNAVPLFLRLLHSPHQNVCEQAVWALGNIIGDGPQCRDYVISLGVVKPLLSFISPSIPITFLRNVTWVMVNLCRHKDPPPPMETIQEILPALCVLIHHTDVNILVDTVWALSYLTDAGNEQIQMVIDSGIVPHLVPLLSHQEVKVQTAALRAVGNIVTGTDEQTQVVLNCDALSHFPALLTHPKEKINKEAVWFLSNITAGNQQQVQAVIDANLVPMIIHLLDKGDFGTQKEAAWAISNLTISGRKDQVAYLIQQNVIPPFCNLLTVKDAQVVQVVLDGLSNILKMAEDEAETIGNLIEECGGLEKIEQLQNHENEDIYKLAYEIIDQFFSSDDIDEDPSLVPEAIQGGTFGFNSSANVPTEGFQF
As to K160T, the “effect of a mutation on the interaction” value was “disrupting interaction strength”.

A further test covers variants of B5. As to conditions: with ima3_human KPNA4, O00629. This is another data set of the same source.
Turning to K160T, the “effect of a mutation on the interaction” value is “decreasing interaction strength”.

The variants in another test derive from B6. As to conditions: with nedd4_human NEDD4, P46934.
Target sequence in this assay (P46934 whole entry): as the sequence (P46934 whole entry) above
Turning to P616R, the “effect of a mutation on the interaction” value is “decreasing interaction strength”.

The values above are taken from IntAct's records for PubMed 39009827.
